Test results taken from the DeepSol protein solubility set.

Assay: soluble on expression in E. coli; label from the status in PepcDB or PDB records
In the case of “MGSDKIHHHHHHMSNSLKASTAGLAIVDKSRQRLGWTKTSTARWWQDAHTSRATLRRFWQGDRIQREIFIAICQAVGIGNWEAIAELSNADLESTVVIPTPYLDCNEAPDLESFYGRNQELAQLEEWLTSQNCKLVTINGIAGIGKTALALALVDRIQLKFDCLIWKSLQTSPSLISLLNSLLNSFEQGVVVQNIQQGTAQLIQQLQKHHCLLILDGLEAIFSQPEDLSYGQFIQQLSRERHQSCILISSREQPNNIETNTKIYHCLNLKGLPKTEAVELLQSRGFTGKELGLSVLIQLYRGNPLVLKLVTPLIQSVFGGNVAAFLSQHTLIVGDRLRVILKQQFEQLSGLEQDILYWLAIWQEPVSFSRLQTHLLISVDPAMVLEGIVALERRSLLEKWVSDYELSFTLQPLVMKVVTDELIEHTVQEIDRVVQSHDIRHFQILRTHWLLRPGTDDIAGDRILTQLWKKLWHLYGATLPQIFNQILLLLKSQSPLAMGYIGSNVAILSGIDLL”, the “soluble on expression in E. coli” value is reported as “not soluble”. In the case of “MGSDKIHHHHHHMSPPVRPVDHLIPEGAMTSFFDFAISQLPAATADRRGPAPDDIDAMLRRDSFAAALRLLAGSFIALYEGSPEMTTLFATRQSRLLCHALLALYFQKSTAEEGEIALTREDFGHLALRHGLASDRVAYVFFKEALKRGLTRPVDATEDQATGVVPSPPALAMLAQWYDVHFQALDLLDEGFRASRFIQRSETTLPHIHPHVSRAFLSHPEVRCPGPLSIIFNWFDAGGLLMDRLIAGIDRELPAEQGRRFTDVQTVTQLATSLSLSRSHVGRKLAAAELIGGIGWSGRRGRSALWISQGFYEEYARTQARKLLILDEALIGFV”, the “soluble on expression in E. coli” value is reported as “not soluble”. For “MGSDKIHHHHHHMSQERTDGDLRNTGLSLKHDREWDYELDRIVEAVEERDAEKVGLQFPEGLKRRGPAVADDLREELPDDVTVLLSGQPCYGACDLDTYMMRRTDVFVHFGHSPMKESDKIIYVPLFSNVDVFPIMEQAREEQLADPEDDPDVGLVTTAQHMNKFDEMREWLEERGYTVHTRRGDERLTHEGQVLGCNYASADVDADQMLYVGGGKFHPLGLAMEHPEKHVVIADPVNNVVTVADTEKFMKQRYGAVHRAMDAESWGVIFCTKIGQGRWDQAEEIVENNENAYLITMDEVTPDRLTNFGMDAYVNTGCPRITTDDGPQFKKPMLTPGEYEIAIGEKPLDSLEFDTFHGTW”, the “soluble on expression in E. coli” value was “not soluble”. In the case of “MGSDKIHHHHHHMSQHVLLNSIEHKDVKVMTHRSAALGDNLWYSVTFPQEFRSVQAHYPIFFHKDTATGQFYAVALFGFQQNDNVFLSDQGWSASYVPLTVRRQPFLIGQQTVLEDGVERQQRVIHVDLDHPRVSETEGEALFLPYGGNTPLLDEVGEILEVIHHGLQDGQRFVDALIEHQLLESFTLDIELDNGQKNQMIGFYTINEETLAGLSADALAKLHQQGYLQAIYMTLASQSNVRDLLNLKNAQG”, the “soluble on expression in E. coli” value is reported as “not soluble”. In the case of “MGSDKIHHHHHHMSQMHQQLINEYTRTRLNEEAVSIERIYFYKTDKRVNPKQEEPFWHAAGDIPILVSAPHAVRHFRQKKIKMSDEYTGSIVYLLNKLTGCHAIAVTKLYGGDPNVDSPCIYKEKLAQLCRQGKIKLLLDIHGAARDRDFDVDFGTNNRRNLLEKMHTDEILAQNFRNCGFSKISSDYFAASSPNTIANFAARELGIPAVQIEINKHYRVPAQNPQGFHRLMAALVESINSVGRRYQEGWKDINRERKIR”, the “soluble on expression in E. coli” value is reported as “not soluble”. With “MGSDKIHHHHHHMSRALAKPEIITELSFEEIRAAVLTHLKELLPEYTFLESDPAVKVIEAFSYRELLLRQRINEAARNNILDFATGESLDALGNWHGIARIEGESDERYRERVQLHARGGNGSGTEPYYKLIALTADSRVKDAIIYRKGKDPTIYVAIFGNNEEGTASEDLLQTVSQALHRKNIIMTNDTIIVHAAVKKVLDLEADVWLLPEASLKILTTMEANLRTAWKQEQAIGRELSLSWWVSKLMIPGVQKVIAIAPTKDSVVCDEEILSIGKITLNFKGRAR” the “soluble on expression in E. coli” value was “not soluble”. For “MGSDKIHHHHHHMSRFFRHYQAFHAIIETGTVTGAAERLGVSQPAISNLLAQLERRTRLKLFERNRGRLLPTPEAMVLFDEIDTVIRGLGQVSQAVVDLQNQKAGQLQVATNHAMAFGFMPEQIARFAADKPNLTVAFQSQYSAKIQDWVMAGLFEIGICEQPVRTDGLDWVPFFFEIQCAVPADSPLARHEELTPILLDDVPFIVMGADHMVTRRAREAFHREGANLRIRCQTDLFRNALNLVKQGLGVTLVDPFTLSSDDRSGYVLRRFAPRILLDVIIVTARGRPISAIGAQFLEQVSASMTTLATAAPDPAEP”, the “soluble on expression in E. coli” value was “not soluble”. For “MGSDKIHHHHHHMSRLIEQIKQKDACAFTHGGKFHADDVFSSALLLYINPEISITRGNSVPDDFTGIVFDIGRGEFDHHQKDSRIRENGVPYAAFGLLWEAVGADILGKELAVKFDESFVQPLDNNDNTGEKNELATLIGNFNPSWDYEGGSDEAFFQAVSVAGMILENKFERYRGNERADKRVEEVLAKHDPASRILVLPEFIPCQKALSETDIAFVIFPSNRGGFCIQPQKREYSMNYKCSFPAEWLGLEGEELVNATGIPGAIFCHKGGFIMTVKEQDEAVKACEKALSLHKDSSVIVWYGSKGDTAAMACDSQTDELLINVAKARGIKGVHICHVDAMPVPQLELTELDSETAYAEVLMEKPQWKAYVKEQVKQIVKYRPEAVYVEGNAFETYPVIRALRKKHIPVLTMIENKEKKIMVRIP”, the “soluble on expression in E. coli” value was “not soluble”. With “MGSDKIHHHHHHMSRSIVEVYASWMPIDTPLLVGHLTFAETSRGGVFSFTYDKHFLASNYRLQIDPLLALHSGELYNDSADKNFRAFLDSSPDRWGRILMQRRAAIECRKGIRASAKLTELDYLLGVHDSYRMGGIRFKTAASLDFLDNNTEFSAPPMTSLRELEQAAMNIERDDNIDSDDYYRWLKMLISPGSSLGGARPKACVTDSEGHLWIAKFPNQNDTFDVGAWEMVCYQLALAAGIDMFPSEIRKFSTEHHTFLTKRFDRVGGKRIHFSSAMTQLQYYDGEQSDGASYLEIAEFLSNNGAQTKADLAQLWRRIVFNIAVSNTDDHLRNHGFLLSDKGWKLSPAYDLNPIVGKHGLHLNITDTANELDYALAFEVIDFFRLSREDATRIYDDVMGAVKGWQTVASRLGISRNEQLTKQEAFNV” the “soluble on expression in E. coli” value was “not soluble”. With “MGSDKIHHHHHHMSRTLHAQTHAWLKVFAISARHLSFTRAAEELHVTTGAVSQQIKQLETRLGFKLFRRLPRRLELTDEGQRLAAVVDQAYDAVGQEVRRLRTGVMSGVLRLRCVPSFLAKWLMPRLTRLQARFPDIELHVASEDSNLSLREGEFELAIDLNDGRYAGFQITTLMDEEIFAVCSPQLLRRRPPLVRPDDLGYYPLLHDVTAWRGSHDYAEWEHYLHALGAASVNVQRGYTFNRNHLTVEAAIAGMGVAIARRTLITNELDTGALIAPFAGTVATGKSYGLVYHPGALDDRRVRAVHDWIVEEAARSTAH” the “soluble on expression in E. coli” value was “not soluble”. With “MGSDKIHHHHHHMSSAPIIYALSNNSLLIDAAHLDANNVLTIQKKIWALAAHCKNTAEFTDLVAGMNSLTLYLKSSAGLTKWLEALPLLWDELKSSTFTGKHHLIETLYEGEDLAYVARFHNLSIDEVISIHSKAQYHVLFLGFQPGFAYLHGLDTRLHTPRRAEPRIKVPKGAVAIGAAQTGIYPSDTPGGWHIIGHTNTTLFNSSHSQPCLMQPGDTLEFVALKNQGAGA” the “soluble on expression in E. coli” value was “not soluble”. For “MGSDKIHHHHHHMSSEAIFEHGYENIDLVREYDARYAGEDVHYETFARLANFFGRDMRPHWHDRYFQLHYLVTGRITLQLDEHFYSVRAPLFVLTPPSVPHTFFTNPDSDGHVLTVRQELIWPLVEKLWPGSGDAAMLQGICLSLEGMEHTLAALNHYWPIISLEFQQNKQGREILLQSLAQSIFTILLREAPPNDISTCSVRGEMCLFQKFNRLIDENYRQHLMVPEYATMLGMSESRLTELCRRFANQSPKRLIFERVSREARRLLLYSEQSINQIALDLGYKDPAYFARFFNRMMGCSPTQFRGR”, the “soluble on expression in E. coli” value was “not soluble”. In the case of “MGSDKIHHHHHHMSSLEDILALTSALIRYRSTDTRPEERDRCAAHIMRWCDAEDIASSRVDNNGVTSLIIGPASKRAPLLFMAHYDVVEGPDALFQPVLSDSVLKGRGSIDDKYAVALSLVLFRDHLRHLRAQGRSQDDMPLQLLITGDEETGGYDGARHALGHVGAEFCIALDGGSPSTVITKEKGIIDCTLTAHGRAAHGARPWLGTNAVECLMADYMALKRLFPGQDDPTDPIHWHRSLNLGIVRAGSAVNQVPDLATAWLDVRYTEHDDPQALFAAMQESIRGELVATRTEPVFHSGETPWIDRLLACAPGASTGFAHGASDARFLSEHGIPGVVWGAEGETSQHGPDEHLLVDSLDTVHKALAAFVRTAGGTA”, the “soluble on expression in E. coli” value is reported as “not soluble”. In the case of “MGSDKIHHHHHHMSSVHHKIIKHKIGLLNLAAELGNVSRACKVMGFSRDTFYRYQAAVETGGVEALIDANRRKPNIKNRVEEATEAAILAFALEQPAFGQVRVSNELRKRGIFVSPSGVRSVWLRQNLESFKKRLSALEKHIAETGAVLTEAQVQALEKKQEDDVAQGEIETAHPGYLGSQDTFYVGTLKGVGRIYQQTFVDTYSKWAAAKLYTNKTPITSADMLNDRVLPFFAEQSMGIIRILTDRGTEYCGKPENHDYQLYLALNDIEHSKTKANHPQTNGICERFHKTILQEFYQVTFRRKIYQSIEELQHDLDDWMAYYNSVRTHQGKMCCGRTPMQTLIDAKEIWDDKITELNN”, the “soluble on expression in E. coli” value is reported as “not soluble”. In the case of “MGSDKIHHHHHHMSTDNDTETDDSGGHCSTPDSDGEVAEDIAIVAFERKRDTAAEIVAGIGDRYDSIDILDYHGDVFAEHWGEYDCFVGLMASGIAMRKTAGLLDDKWEDPAVVVVDEALTWAIPLTGGHHGANQVADDLASMGAVPAMTTASEAAGKQGVEERAKALDTHVVNGDSTVATNLAVLDENLGPVARLDGPQAVVVGDDVTVLKRNSDDGVVLGTGSVSGADEQQFRDAWAASLAATDYDIDDVEFVATGTRKADEEGLLAAAEALGLGVVAFEKETLEAHEGPTPSRSKELIGWPGIAEASAIAGGRDNELLAEKERYDEAVTVAVGK”, the “soluble on expression in E. coli” value is reported as “not soluble”. For “MGSDKIHHHHHHMSTQYWEEEIEIMSREKLQELQLQRLKKTINIAANSPYYKEVFSKNGITGDSIQSLDDIRKIPFTTKSDMRANYPFGLVAGDMKRDGVRIHSSSGTTGNPTVIVHSQHDLDSWANLVARCLYMVGIRKTDVFQNSSGYGMFTGGLGFQYGAERLGCLTVPAAAGNSKRQIKFISDFKTTALHAIPSYAIRLAEVFQEEGIDPRETTLKTLVIGAEPHTDEQRRKIERMLNVKAYNSFGMTEMNGPGVAFECQEQNGMHFWEDCYLVEIIDPETGEPVPEGEIGELVLTTLDREMMPLIRYRTRDLTRILPGKCPCGRTHLRIDRIKGRSDDMFIIKGVNIFPMQVEKILVQFPELGSNYLITLETVNNQDEMIVEVELSDLSTDNYIELEKIRRDIIRQLKDEILVTPKVKLVKKGSLPQSEGKAVRVKDLRDNK”, the “soluble on expression in E. coli” value was “not soluble”. In the case of “MGSDKIHHHHHHMSVFATFASQTRIQAILVMQTALSVSSRLSLEPTGTDMPVIKGPDGLPFIPGSSIKGVVRFQVERILRTWDRRPDFWACDPFDAPCIPAKKKEQLLNDAETDQSFAETVWKESCTACRLFGSPWFAGRVAFRDAYLLNPEDLPTLTQIRDGVGIDRDLGTARSGIKYDFETVIPGARFGLEILAENLEEWEIGFLLTVLRLWEEGGIAIGGKTTRGPGWGKLQEIKIQRVGISNLMDYLLERKSSEVAATQFLQTFREWLKERGAGDA”, the “soluble on expression in E. coli” value is reported as “not soluble”. With “MGSDKIHHHHHHMSVRQPLPERLRPTVLEGFVGQTHLTQRIEALLRANRLPSLLLFGPPGCGKSTLALLLAKARSANVLRLSAPEAGLQHLRKQLHGVDILVLDELHRFSKAQQDFFLPLLESGDITMLATTTENPSFSVTRQLLSRLHVLRLRPLGRAELLELGRRGAVAQEVQIEDDVLDLLASMSHGDARTMLNLLEYVAALPEDKRDIEGVRSAMPEIVSRHDKDGDNHYELASALIKSIRGSDPDAALYYLACLLEGGEDPRFVCRRLILSASEDVGLADPQALPLAVACMQAVEYVGMPEGFIPMAQTTVHLALARKSNSTYAAYINAARELKTQGRKGVPLHLRNPSTRLQKEWGYGKGYRYPHSYPEGWIEQEYLPEGLEDRRFYAPRENGEEPRLSAWWRKLQRQRPPRRGSGE” the “soluble on expression in E. coli” value was “not soluble”.
